The text below walks through data of paper PMC6992781.

For this experiment, the target named is RVC20 (mature), recombinant human IgG1 (human). Put plainly: BLI. Background: In BLI a coated tip is dipped into the sample, and binding shifts an interference pattern.

Where “and” joins values, the source holds several entries; their conditions need not be identical. Equal entries are not always repeated.

Chain of RVC20 (mature), recombinant human IgG1 (human) (heavy, as listed by the source, chain 1 of 2): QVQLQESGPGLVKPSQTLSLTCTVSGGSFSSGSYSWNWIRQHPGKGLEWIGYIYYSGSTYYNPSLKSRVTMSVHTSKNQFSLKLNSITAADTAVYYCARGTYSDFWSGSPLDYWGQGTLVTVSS
Chain of RVC20 (mature), recombinant human IgG1 (human) (light, as listed by the source, chain 2 of 2): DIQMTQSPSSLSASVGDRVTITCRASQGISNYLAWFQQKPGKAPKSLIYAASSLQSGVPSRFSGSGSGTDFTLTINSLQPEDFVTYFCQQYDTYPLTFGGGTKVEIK

On to “RABV G domain III (E31-V56 and N182-D262 joined by three glycines), strain 9147FRA (domain or fragment)”, for which the Kd (usually the constant that tells how readily two partners part at equilibrium) was 7.95 nM and 11.3 nM and 12.2 nM.
